Experimental data taken from article PMC12245079, “FUS Selectively Facilitates circRNAs Packing into Small Extracellular Vesicles within Hypoxia Neuron”.

Experiments:
Assay in all cases: EMSA; 100 nM probe; 10 mM Tris-HCl pH 8.0, 10 mM NaCl, 25 mM KCl, 1 mM MgCl2, 1 mM DTT, 1 mg/mL tRNA; room temperature 30 min; 4% native acrylamide gel, 1x TBE
FUS polypeptide-4 = FUS polypeptide-4 (UniProt P35637 280-375); settings: protein: recombinant; tags: GST fusion (pGEX-4T-1), TEV cleavage described; label: Cy3 (3')
FUS polypeptide-3 = FUS polypeptide-3 (UniProt P35637 1-380); settings: protein: recombinant; tags: GST fusion (pGEX-4T-1), TEV cleavage described; label: Cy3 (3')
FUS polypeptide-2 = FUS polypeptide-2 (UniProt P35637 50-400); settings: protein: commercial; tags: GST fusion (pGEX-4T-1) described; label: Cy3 (3')
FUS polypeptide-1 = FUS polypeptide-1 (UniProt P35637 1-526); settings: protein: recombinant; tags: GST fusion (pGEX-4T-1), TEV cleavage described; label: Cy3 (3')
Sequence of FUS polypeptide-1 (P35637 whole entry, the tested form may be a part): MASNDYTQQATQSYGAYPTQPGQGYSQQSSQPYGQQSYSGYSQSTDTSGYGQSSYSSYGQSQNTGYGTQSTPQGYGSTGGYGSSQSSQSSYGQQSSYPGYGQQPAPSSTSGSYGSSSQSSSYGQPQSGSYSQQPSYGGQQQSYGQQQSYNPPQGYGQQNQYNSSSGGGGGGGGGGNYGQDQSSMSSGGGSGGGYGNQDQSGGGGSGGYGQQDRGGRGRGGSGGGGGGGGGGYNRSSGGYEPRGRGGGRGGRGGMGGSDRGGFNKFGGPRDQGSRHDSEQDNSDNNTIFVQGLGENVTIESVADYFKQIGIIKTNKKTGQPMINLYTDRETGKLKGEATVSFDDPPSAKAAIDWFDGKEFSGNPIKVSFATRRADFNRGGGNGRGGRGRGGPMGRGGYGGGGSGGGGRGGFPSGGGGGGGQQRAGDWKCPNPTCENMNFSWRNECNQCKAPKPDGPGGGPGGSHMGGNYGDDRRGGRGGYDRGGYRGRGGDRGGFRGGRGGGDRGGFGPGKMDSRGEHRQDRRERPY

Sequence of FUS polypeptide-3 (P35637 1-380): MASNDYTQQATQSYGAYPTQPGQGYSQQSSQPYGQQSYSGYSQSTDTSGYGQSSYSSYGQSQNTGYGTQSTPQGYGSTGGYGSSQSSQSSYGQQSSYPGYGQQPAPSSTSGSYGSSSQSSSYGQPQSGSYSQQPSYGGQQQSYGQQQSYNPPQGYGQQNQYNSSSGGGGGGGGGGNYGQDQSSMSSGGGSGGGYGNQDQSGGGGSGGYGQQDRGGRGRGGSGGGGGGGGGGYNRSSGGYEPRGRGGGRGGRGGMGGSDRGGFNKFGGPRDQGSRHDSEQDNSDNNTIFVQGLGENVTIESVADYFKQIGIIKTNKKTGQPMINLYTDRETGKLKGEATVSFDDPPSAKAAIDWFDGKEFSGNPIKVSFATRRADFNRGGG
Sequence of FUS polypeptide-2 (P35637 50-400): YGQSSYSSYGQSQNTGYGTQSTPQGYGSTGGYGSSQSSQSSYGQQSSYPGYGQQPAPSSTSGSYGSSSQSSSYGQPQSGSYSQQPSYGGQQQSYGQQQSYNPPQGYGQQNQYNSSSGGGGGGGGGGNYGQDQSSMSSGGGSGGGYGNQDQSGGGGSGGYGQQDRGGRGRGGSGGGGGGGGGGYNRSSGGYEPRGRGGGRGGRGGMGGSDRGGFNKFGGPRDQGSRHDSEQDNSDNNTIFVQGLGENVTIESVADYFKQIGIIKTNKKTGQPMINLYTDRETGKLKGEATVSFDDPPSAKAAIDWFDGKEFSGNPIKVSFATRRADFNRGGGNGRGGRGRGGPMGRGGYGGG
Sequence of FUS polypeptide-4 (P35637 280-375): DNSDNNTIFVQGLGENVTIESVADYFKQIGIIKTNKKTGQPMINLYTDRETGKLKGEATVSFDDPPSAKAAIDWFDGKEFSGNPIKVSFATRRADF

UUGUAUUUUGAGCUAGUUUGGUGAC (ssRNA) [GGUG oligo]: no binding (FUS polypeptide-4); binds (FUS polypeptide-3); binds (FUS polypeptide-2). UUGUAUUUUGAGCUAGUUUGGUGAC (ssRNA) [GGUG oligo]: binds (FUS polypeptide-1).
